{"source": "patent US20240116985A1", "about": "(published 2024)", "binders": {"B1": {"name": "I-1533 (peptide)", "peptide": "Ac-[αAllylPro]DN[B5(15)]DEAAFL[S8]F[Bta]Q-NH2", "modifications": "staple 1-4, 4-11", "notes": "Stapled peptide composition; also called Ac-PL3-Asp-Asn-B5-Asp-Glu-Ala-Ala-Phe-Leu-S8-Phe-BztA-Gln-NH2"}, "B2": {"name": "I-1540 (peptide)", "peptide": "XDQXDEAAFQXFXQ", "modifications": "not fully specified; N-terminal Ac; PL3 at 1, B5 at 4, S8 at 11 (staples PL3-B5 and B5-S8 by olefin metathesis); BztA at 13; C-terminal NH2", "notes": "Stapled peptide composition; Same description as I-1539; later eluting HPLC peak (staple isomer); also called Ac-PL3-Asp-Gln-B5-Asp-Glu-Ala-Ala-Phe-Gln-S8-Phe-BztA-Gln-NH2"}, "B3": {"name": "I-1539 (peptide)", "peptide": "XDQXDEAAFQXFXQ", "modifications": "not fully specified; N-terminal Ac; PL3 at 1, B5 at 4, S8 at 11 (staples PL3-B5 and B5-S8 by olefin metathesis); BztA at 13; C-terminal NH2", "notes": "Stapled peptide composition; earlier eluting HPLC peak (staple isomer); also called Ac-PL3-Asp-Gln-B5-Asp-Glu-Ala-Ala-Phe-Gln-S8-Phe-BztA-Gln-NH2"}, "B4": {"name": "I-1553 (peptide)", "peptide": "Ac-[αAllylPro]DK[B5(23)]DEAAFL[S8]F[Bta]Q-NH2", "modifications": "staple 1-4, 4-11", "notes": "Stapled peptide composition; also called Ac-PL3-Asp-Lys-B5-Asp-Glu-Ala-Ala-Phe-Leu-S8-Phe-BztA-Gln-NH2"}, "B5": {"name": "I-1541 (peptide)", "peptide": "Ac-[αAllylPro]DQ[B5(15)]DEAAFL[S8]F[Bta]Q-NH2", "modifications": "staple 1-4, 4-11", "notes": "Stapled peptide composition; also called Ac-PL3-Asp-Gln-B5-Asp-Glu-Ala-Ala-Phe-Leu-S8-Phe-BztA-Gln-NH2"}, "B6": {"name": "I-1554 (peptide)", "peptide": "Ac-[αAllylPro]DK[B5(23)]DEAAF[hSer][S8]F[Bta]Q-NH2", "modifications": "staple 1-4, 4-11", "notes": "Stapled peptide composition; also called Ac-PL3-Asp-Lys-B5-Asp-Glu-Ala-Ala-Phe-Hse-S8-Phe-BztA-Gln-NH2"}, "B7": {"name": "I-1546 (peptide)", "peptide": "Ac-[αAllylPro]D[hSer][B5(15)]DEAAFL[S8]F[Bta]Q-NH2", "modifications": "staple 1-4, 4-11", "notes": "Stapled peptide composition; also called Ac-PL3-Asp-Hse-B5-Asp-Glu-Ala-Ala-Phe-Leu-S8-Phe-BztA-Gln-NH2"}, "B8": {"name": "I-1545 (peptide)", "peptide": "XDSXDEAAFQXFXQ", "modifications": "not fully specified; N-terminal Ac; PL3 at 1, B5 at 4, S8 at 11 (staples PL3-B5 and B5-S8 by olefin metathesis); Hse at 3; BztA at 13; C-terminal NH2", "notes": "Stapled peptide composition; later eluting HPLC peak (staple isomer); also called Ac-PL3-Asp-Hse-B5-Asp-Glu-Ala-Ala-Phe-Gln-S8-Phe-BztA-Gln-NH2"}, "B9": {"name": "I-2045 (peptide)", "peptide": "Ac-[αAllylPro]D[tBuAla][B5(3)]D[Phe(3-COOH)]AAFS[PyrS2″][3Thi][Bta]N-NH2", "modifications": "staple 1-4, 4-11"}, "B10": {"name": "I-2044 (peptide)", "peptide": "Ac-[αAllylPro]D[tBuAla][B5(3)]D[Phe(3-COOH)]AAFF[PyrS2″][3Thi][Bta]N-NH2", "modifications": "staple 1-4, 4-11"}, "B11": {"name": "I-2049 (peptide)", "peptide": "Ac-[αAllylPro]D[tBuAla][B5(3)]D[Phe(3-COOH)]NAFL[PyrS2″][3Thi][Bta]A-NH2", "modifications": "staple 1-4, 4-11"}, "B12": {"name": "I-2050 (peptide)", "peptide": "Ac-[αAllylPro]D[tBuAla][B5(3)]D[Phe(3-COOH)]SAFL[PyrS2″][3Thi][Bta]A-NH2", "modifications": "staple 1-4, 4-11"}, "B13": {"name": "I-2048 (peptide)", "peptide": "Ac-[αAllylPro]D[tBuAla][B5(3)]D[TfeGA]AAFL[PyrS2″][3Thi][Bta]Q-NH2", "modifications": "staple 1-4, 4-11; not fully specified (residue 9)"}, "B14": {"name": "I-2046 (peptide)", "peptide": "Ac-[αAllylPro]D[tBuAla][B5(3)]D[Phe(3-COOH)]AAFL[PyrS2″][3Thi][Bta]NAAA-NH2", "modifications": "staple 1-4, 4-11"}}, "note": "Starred links: 1 amine or outer side, 2 acyl side, 3 side chain; linkers in the order of their positions; H or OH if unused. Positions of bridges follow the written chain, without caps; N, C: chain ends. Non-standard residues stand in square brackets, D forms with d. Primed or numbered codes have the meaning given here. B5(15) = 2-amino-2-(pent-4-en-1-yl)hept-6-enoic acid (2,2-bis(4-pentenyl)glycine), stitching residue bearing two staples, C=CCCCC(CCCC=C)(N[*:1])C(=O)[*:2]; PyrS2″ = (S)-3-amino-1-((pent-4-en-1-yloxy)carbonyl)pyrrolidine-3-carboxylic acid (stapling residue), C=CCCCOC(=O)N1CC[C@@](N[*:1])(C(=O)[*:2])C1; B5(23) = 2-amino-2-(pent-4-en-1-yl)hept-6-enoic acid (2,2-bis(4-pentenyl)glycine), stitching residue, C=CCCCC(CCCC=C)(N[*:1])C(=O)[*:2]; TfeGA = (S)-2-amino-3-((carboxymethyl)(2,2,2-trifluoroethyl)amino)propanoic acid, O=C([C@H](CN(CC(=O)[*:3])CC(F)(F)F)N[*:1])[*:2]; B5(3) = 2,2-bis(4-pentenyl)glycine (stitching residue), C=CCCCC(CCCC=C)(N[*:1])C(=O)[*:2]; Phe(3-COOH) = N[C@@H](Cc1cccc(C(=O)O)c1)C(=O)O; Bta = N[C@@H](Cc1csc2ccccc12)C(=O)O; αAllylPro = C=CC[C@@]1(C(=O)O)CCCN1; tBuAla = CC(C)(C)C[C@H](N)C(=O)O; 3Thi = N[C@@H](Cc1ccsc1)C(=O)O; S8 = C=CCCCCCC[C@](C)(N)C(=O)O; hSer = N[C@@H](CCO)C(=O)O", "data": [{"biological_target": "T1, B-cat-Halo (beta-catenin HaloTag NanoBRET construct expressed in HEK293 cells) (UniProt P35222 1-781)", "T1 sequence (looked up)": "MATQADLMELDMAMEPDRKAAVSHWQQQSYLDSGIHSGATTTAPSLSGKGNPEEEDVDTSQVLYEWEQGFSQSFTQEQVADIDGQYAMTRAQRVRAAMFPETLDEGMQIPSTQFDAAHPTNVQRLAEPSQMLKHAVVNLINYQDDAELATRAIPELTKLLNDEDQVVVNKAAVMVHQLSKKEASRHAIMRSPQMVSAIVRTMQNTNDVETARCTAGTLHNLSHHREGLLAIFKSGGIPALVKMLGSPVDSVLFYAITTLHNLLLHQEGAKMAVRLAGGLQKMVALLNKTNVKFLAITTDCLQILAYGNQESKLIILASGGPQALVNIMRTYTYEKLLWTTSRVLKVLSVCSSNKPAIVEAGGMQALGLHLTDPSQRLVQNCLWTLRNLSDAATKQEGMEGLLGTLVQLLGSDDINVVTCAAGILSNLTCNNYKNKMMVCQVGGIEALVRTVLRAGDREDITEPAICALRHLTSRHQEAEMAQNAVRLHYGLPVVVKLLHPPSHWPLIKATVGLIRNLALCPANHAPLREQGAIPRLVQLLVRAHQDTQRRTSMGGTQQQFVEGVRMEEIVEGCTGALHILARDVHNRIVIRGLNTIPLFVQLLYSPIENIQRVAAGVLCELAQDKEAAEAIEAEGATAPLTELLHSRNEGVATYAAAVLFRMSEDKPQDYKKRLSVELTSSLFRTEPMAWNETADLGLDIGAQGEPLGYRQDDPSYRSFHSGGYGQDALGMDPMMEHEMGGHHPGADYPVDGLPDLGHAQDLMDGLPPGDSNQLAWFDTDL", "experiment": "cell-based or functional assay", "units": {"NanoBRET Abs IC50": "nM"}, "values": [{"binder": "B1", "NanoBRET Abs IC50": "> 20000"}, {"binder": "B2", "NanoBRET Abs IC50": 42400}, {"binder": "B3", "NanoBRET Abs IC50": "> 20000"}, {"binder": "B4", "NanoBRET Abs IC50": "> 20000"}, {"binder": "B5", "NanoBRET Abs IC50": 34700}, {"binder": "B6", "NanoBRET Abs IC50": "> 20000"}, {"binder": "B7", "NanoBRET Abs IC50": 37900}, {"binder": "B8", "NanoBRET Abs IC50": "> 20000"}]}, {"biological_target": "T2, B-cat-Halo (Homo sapiens (Human), UniProt P35222 1-781)", "T2 sequence": "T1 sequence (looked up)", "experiment": "cell-based or functional assay", "units": {"NanoBRET Abs IC50": "nM"}, "values": [{"binder": "B9", "NanoBRET Abs IC50": 13500}, {"binder": "B10", "NanoBRET Abs IC50": 2600}, {"binder": "B11", "NanoBRET Abs IC50": 4500}, {"binder": "B12", "NanoBRET Abs IC50": 4900}, {"binder": "B13", "NanoBRET Abs IC50": 28800}, {"binder": "B14", "NanoBRET Abs IC50": 2900}]}, {"biological_target": "T3, full-length beta-Catenin (Uniprot ID P35222) (Homo sapiens (Human), UniProt P35222 2-781)", "T3 construct": "full-length; also called bCat; B-Catenin", "T3 sequence": "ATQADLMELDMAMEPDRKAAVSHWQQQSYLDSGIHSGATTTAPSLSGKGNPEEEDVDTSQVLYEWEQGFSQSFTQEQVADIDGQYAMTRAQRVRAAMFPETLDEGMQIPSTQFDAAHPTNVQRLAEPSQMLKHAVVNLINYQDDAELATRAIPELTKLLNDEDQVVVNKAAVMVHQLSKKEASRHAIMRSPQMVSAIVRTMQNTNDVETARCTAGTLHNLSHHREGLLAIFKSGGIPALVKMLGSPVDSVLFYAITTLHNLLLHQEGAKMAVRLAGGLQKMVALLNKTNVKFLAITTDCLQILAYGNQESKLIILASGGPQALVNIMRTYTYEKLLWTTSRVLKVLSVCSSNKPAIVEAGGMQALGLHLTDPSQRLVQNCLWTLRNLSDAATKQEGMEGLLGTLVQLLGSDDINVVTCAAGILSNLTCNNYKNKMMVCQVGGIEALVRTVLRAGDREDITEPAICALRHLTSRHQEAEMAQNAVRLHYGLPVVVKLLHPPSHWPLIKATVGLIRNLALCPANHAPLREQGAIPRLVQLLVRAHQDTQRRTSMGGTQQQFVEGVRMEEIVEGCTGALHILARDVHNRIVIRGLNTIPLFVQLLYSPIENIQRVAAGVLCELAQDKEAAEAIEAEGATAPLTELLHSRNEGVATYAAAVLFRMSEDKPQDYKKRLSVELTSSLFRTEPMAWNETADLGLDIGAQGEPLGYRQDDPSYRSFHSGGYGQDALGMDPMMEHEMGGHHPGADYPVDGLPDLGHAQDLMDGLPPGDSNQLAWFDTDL", "experiment": "fluorescence polarization competition; displaces 5FAM-TCF4(10-53) from full-length beta-catenin", "experimental": "The plate was incubated protected from light for 60 minutes at 20° C. prior to read. Reads were performed on a CLARIOstar plate reader (BMG Labtech) in duplicate, and data were fitted to a 1:1 binding model with hill slope using an in-house script. All provided concentrations are final concentrations.", "units": {"IC50": "nM"}, "values": [{"binder": "B1", "IC50": 76}, {"binder": "B2", "IC50": 17}, {"binder": "B3", "IC50": 36}, {"binder": "B4", "IC50": 133}, {"binder": "B5", "IC50": 39}, {"binder": "B6", "IC50": 63}, {"binder": "B7", "IC50": 71}, {"binder": "B8", "IC50": 26}]}]}
